Laboratory results reported in publication PMC3923439, “Anti-inflammatory properties of a novel peptide interleukin 1 receptor antagonist” (Journal of Neuroinflammation, 2014).
No end group written: not given here.

Legend:
[1] = system: Cerebellar granule neurons; assay: Survival of cerebellar granule neurons induced to undergo apoptosis by low potassium; assay type: cell-based, rat; conditions: 5 mM KCl, survival estimated 48 hours later
Experimental: (§1) Cerebellar granule neurons (CGNs) were prepared from 7-day-old Wistar rats (from Charles River Laboratories, Sulzfeld, Germany; or from Hygind Møllegård Erik Møllegaard Hansen, Ejby, Denmark) as previously described. Briefly, the cerebella were cleared of meninges and blood vessels, roughly homogenized by chopping and trypsinized. The cells were washed in the presence of DNAse I and soybean trypsin inhibitor (Sigma-Aldrich, St Louis, MO, USA), and cellular debris was pelleted by centrifugation. The fibroblastoid mouse cell line L929 (LVN; European Collection of Cell Cultures, Porton Down, UK) was routinely grown at 37°C with 5% CO2 in DMEM supplemented with 10% (vol/vol) FCS, 2 mM GlutaMAX, 100 U/ml penicillin and 100 μg/ml streptomycin.
(§2) Cerebellar granule neurons were plated at a density of 1 × 10^5 cells/cm^2 on poly-L-lysine-coated, eight-well Permanox Lab-Tek chamber slides (Nunc) in Neurobasal-A medium supplemented with 2% (vol/vol) B27 (Gibco BRL), 0.5% (vol/vol) GlutaMAX, 100 U/ml penicillin and 100 μg/ml streptomycin. The CGN survival assay was performed as previously described. The neurite outgrowth assay was also performed as previously described.
Figure 5 Effect of Ilantide and interleukin 1 receptor antagonist on survival of cerebellar granule neurons induced to undergo apoptosis. The neurons were allowed to differentiate for 7 days in a high-potassium (40 mM) medium before apoptosis was induced by changing to a low-potassium medium (5 mM). Survival was estimated 48 hours later. (A) The effect of insulin-like growth factor 1 (IGF-1), interleukin 1 receptor antagonist (IL-1Ra) and IL-1β on cerebellar granule neuron (CGN) apoptosis induced by 5 mM KCl. (B) The effect of Ilantide-m on CGN apoptosis induced by 5 mM KCl. […] The results from at least four independent experiments are expressed as mean ± SEM with untreated cultures induced to undergo apoptosis by 5 mM KCl set at 100%. *P < 0.05 and **P < 0.01 compared with untreated cultures induced to undergo apoptosis (one-way analysis of variance followed by Newman-Keuls post hoc test).

[2] = system: double-Ig module (Ig1-Ig2) of NCAM; assay: Surface plasmon resonance, negative control protein; assay type: binding; conditions: SPR
Experimental: (§3) The binding analysis was performed using a Biacore 2000 instrument (GE Healthcare Life Sciences) that contained 150 mM NaCl as running buffer at 25°C with 10 mM sodium phosphate (pH 7.4). The flow rate was 5 μl/min during immobilization. Ilantide peptide, IL-1β or IL-1Ra was immobilized on a CM4 sensor chip according to the manufacturer’s instructions, after which the recombinant ectodomain of IL-1RI (R&D Systems) was injected. The neural cell adhesion molecule (NCAM) immunoglobulin modules 1 and 2 (Ig1 and Ig2) were used as a negative control protein [9]. The data were analyzed using nonlinear curve-fitting with the manufacturer’s software.

ectodomain of IL-1RI = target: T1, ectodomain of IL-1RI (Homo sapiens, UniProt P14778); assay: Surface plasmon resonance binding of immobilized ligand to recombinant IL-1RI ectodomain; conditions: SPR, Biacore 2000, ligand immobilized on CM4 chip, IL-1RI ectodomain injected, 25°C
T1 construct: the recombinant ectodomain of IL-1RI (R&D Systems) was injected; purchased R&D Systems
T1 sequence (P14778 18-336 limits assumed): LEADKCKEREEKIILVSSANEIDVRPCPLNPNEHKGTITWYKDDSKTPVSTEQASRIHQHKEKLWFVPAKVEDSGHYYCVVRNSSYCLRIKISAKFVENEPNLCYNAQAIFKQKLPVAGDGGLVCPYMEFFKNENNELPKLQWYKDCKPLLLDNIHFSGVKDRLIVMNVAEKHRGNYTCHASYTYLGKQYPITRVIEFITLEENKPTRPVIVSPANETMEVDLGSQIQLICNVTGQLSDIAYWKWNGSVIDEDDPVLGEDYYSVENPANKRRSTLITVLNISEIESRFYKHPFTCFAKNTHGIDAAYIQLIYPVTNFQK
Experimental: as §3

[3] = system: Cerebellar granule neurons; assay: Neurite outgrowth from cerebellar granule neurons; assay type: cell-based, rat; conditions: for Neurite outgrowth from CGNs: 7-day-old CGNs grown on fibroblast cells, 24 hours
Experimental: as §1, §2
Figure 6 Effect of Ilantide on neurite outgrowth from cerebellar granule neurons. Cerebellar granule neuron cultures were treated with interleukin 1 receptor antagonist (IL-1Ra) (A), soluble interleukin 1 receptor type I (sIL-1RI) (B), Ilantide-t (C) or IL-1β (D) for 24 hours. The cultures were fixed and immunostained with rabbit anti-rat growth-associated protein 43 (anti-GAP-43) primary antibodies and then with secondary Alexa Fluor 488 goat anti-rabbit antibodies. (E) Effect of IL-1β on neurite outgrowth induced by IL-1Ra. (F) Effect of IL-1β on neurite outgrowth induced by Ilantide-t. The results from three to four independent experiments are expressed as percentage ± SEM with untreated controls set at 100%, corresponding to an average neurite length of 19.3 ± 4.1 μm. *P < 0.05 and **P < 0.01 compared with untreated controls (A to D) or cultures treated with either IL-1Ra or Ilantide alone (E and F) by one-way analysis of variance followed by the Newman-Keuls post hoc test).

AMJ2-C8 macrophages = assay: TNF-α secretion from IL-1β-activated macrophages (L929 bioassay); assay type: cell-based, mouse; conditions: 1.2 pM IL-1β, 24 hours; TNF-α by L929 survival with actinomycin D; hydrocortisone at 100 μM
Experimental: A murine alveolar macrophage cell line, AMJ2-C8 (American Type Culture Collection, Borås, Sweden), was routinely grown at 37°C with 5% CO2 in DMEM supplemented with 5% (vol/vol) FCS, 0.5% (v/v) 2-[4-(2-hydroxyethyl)piperazin-1-yl]ethanesulfonic acid (HEPES) (Gibco BRL), 2 mM GlutaMAX, 100 U/ml penicillin and 100 μg/ml streptomycin.
AMJ2-C8 macrophages were seeded into six-well multidishes at a density of 2.5 × 10^5 cells/well, and sIL-1RI, IL-1Ra or various concentrations of Ilantide were added to the cultures. Treatment with 100 μM hydrocortisone (Sigma-Aldrich, Brøndby, Denmark) was used as a positive control. After 10-minute incubation at 37°C, 1.2 pM IL-1β or IFN-γ (R&D Systems) was added to activate the macrophages. L929 cells were seeded onto a 96-well plate (Nunc, Roskilde, Denmark) at a density 0.2 × 10^2 cells/ml. Both cell cultures were incubated for 24 hours at 37°C. Conditioned medium from macrophages was collected and added to the L929 cell cultures together with actinomycin D (0.6 μg/well; Sigma-Aldrich). TNF-α is known to induce classic apoptosis in L929 cells in the presence of actinomycin D [12]. After 24-hour incubation at 37°C, 20 μl of 3-(4,5-dimethylthiazol-2-yl)-5-(3-carboxymethoxyphenyl)-2-(4-sulfophenyl)-2H-tetrazolium (Promega, Madison, WI, USA) were added to each well and incubated at 37°C in the dark for 45 minutes, then measured in an ELISA reader at 490 nm. To calculate the amount of TNF-α in the conditioned medium, fibroblasts were treated with standard concentrations of TNF-α (R&D Systems).

[4] = target: T2, recombinant ectodomain of IL-1 receptor type I (IL-1RI) (UniProt P14778 18-336); assay: SPR; Biacore 2000; about 2,500 to 3,000 RU of Ilantide-t, IL-1β or IL-1Ra immobilised on a CM4 sensor chip; IL-1RI ectodomain (or NCAM Ig1-Ig2 as negative control) injected; 25°C, 10 mM sodium phosphate pH 7.4, 150 mM NaCl; apparent Kd; conditions: both partners purified
T2 construct: interleukin 1 receptor type I, ectodomain; No catalogue number, limits or tag are printed for the bought protein; also called sIL-1RI; soluble IL-1 receptor type I; source: bought: R&D Systems
T2 sequence (looked up): T1 sequence (P14778 18-336 limits assumed)

[5] = system: HEK-Blue IL-1β cells (IL-1RI / NF-κB); assay: IL-1β-induced NF-κB activation, SEAP reporter; assay type: cell-based; conditions: 1.2 pM IL-1β, 24 hours, SEAP read at 600 nm, four independent experiments
Experimental: HEK-Blue IL-1β cells that contained an IL-1β-sensitive reporter (InvivoGen, San Diego, CA, USA) and HEK-Blue IL-6 cells that contained an IL-6-sensitive reporter (InvivoGen) were grown at 37°C with 5% CO2 in Dulbecco’s modified Eagle’s medium (DMEM) supplemented with 5% (vol/vol) fetal calf serum (FCS), 4.5 g/L glucose, 2 mM GlutaMAX medium, 100 U/ml penicillin, 100 μg/ml streptomycin (all obtained from Gibco BRL/Life Technologies, Taastrup, Denmark), 100 μg/ml zeocin, 200 μg/ml hygromycin and 100 μg/ml Normocin (all purchased from InvivoGen).
HEK-Blue IL-1β cells allow the monitoring of the activation of the NF-κB pathway specifically in response to IL-1β. They express a NF-κB-inducible secreted embryonic alkaline phosphatase (SEAP) reporter gene. The binding of IL-1β to its receptor IL-1RI on the surface of HEK-Blue IL-1β cells triggers a signaling cascade that leads to the activation NF-κB and the subsequent production of SEAP. HEK-Blue IL-1β cells were grown as described above. The cells were seeded onto a 96-well plate at a density 3.5 × 10^5 cells/ml. For the NF-κB activation assay, the cells were treated with 1.2 pM IL-1β alone or together with sIL-1RI, IL-1Ra or various concentrations of Ilantide. After 24 hours of incubation at 37°C, 150 μl of the cell supernatants were added to each well of a 96-well plate together with 50 μl of QUANTI-Blue (InvivoGen), incubated at 37°C for 40 minutes and measured in an enzyme-linked immunosorbent assay (ELISA) reader at 600 nm to determine the expression levels of reporter genes activated by NF-κB.

IGF-1: insulin-like growth factor 1, positive control [reference compound]
CGN survival after potassium withdrawal [1]: inhibited

IL-1β: recombinant interleukin 1β
Binding to double-Ig module of NCAM (negative control) [2]: no significant binding | k a (ectodomain of IL-1RI; 10 mM sodium phosphate pH 7.4, 150 mM NaCl): 8.56 ± 2.79 × 10^5 M^-1 s^-1 | k d (ectodomain of IL-1RI; pH 7.4): 7.53 ± 2.03 × 10^-4 s^-1 | Neurite outgrowth from CGNs [3]: did not have neuritogenic effects | Effect on the neuritogenic effect of both IL-1Ra and Ilantide-t ([3]; IL-1β at 1.5 nM and 7.5 nM): significantly inhibited

C[C@]12CCC(=O)C=C1CC[C@@H]1[C@@H]2[C@@H](O)C[C@@]2(C)[C@H]1CC[C@]2(O)C(=O)CO [hydrocortisone, reference compound]
Inhibition of IL-1β-induced TNF-α secretion in macrophages (AMJ2-C8 macrophages): completely inhibited

B1: Ilantide-t (peptide)
peptide: SGRKSSKMQA
modifications: also: dendrimer of four monomers coupled to a lysine backbone
notes: ten residues from the N terminus of human IL-1 receptor antagonist (IL-1Ra); Four copies of the peptide on a lysine backbone; also called IL-1 antagonistic peptide (dendrimer form); source: synthetic peptide; bought: Schafer-N; further purified by gel filtration (Sephadex G-10)
Kd [4]: 27.5 nM | koff [4]: 0.00269 s⁻¹ | kon [4]: 184000 M⁻¹ s⁻¹

B2: sIL-1RI: soluble IL-1 receptor type I (recombinant ectodomain of IL-1RI) (protein)
chain: T1 sequence (P14778 18-336 limits assumed)
Inhibition of NF-κB activation induced by IL-1β [5]: dose-dependently inhibited | Inhibition of IL-1β-induced TNF-α secretion in macrophages (AMJ2-C8 macrophages): significantly inhibited | Neurite outgrowth from CGNs [3]: significantly induced neurite outgrowth
